Key:
UPF2 MIF4G-D3 = UPF2 MIF4G-D3 (UniProt Q9HAU5 761-1054); assay: EMSA; weak unquenched complex band; FA: 25 mM HEPES pH 7.45, 150 mM NaCl, 5% glycerol, 10 nM probe, temperature not stated; EMSA: 250 nM probe in 25 mM HEPES pH 7.45, 100 mM NaCl, 5% glycerol (protein dilution buffer 300 nM [sic] NaCl, 2 mM bME or 1 mM TCEP), 1 h on ice, gel at 4 C; conditions: protein: recombinant; tags: C-terminal TEV site and His6; label: 5' HEX, 3' BHQ-1; hairpin with bulges
UPF2L [1] = target: T1, UPF2L (UniProt Q9HAU5 121-1227); assay: fluorescence spectroscopy (unquenching); FA: 25 mM HEPES pH 7.45, 150 mM NaCl, 5% glycerol, 10 nM probe, temperature not stated; EMSA: 250 nM probe in 25 mM HEPES pH 7.45, 100 mM NaCl, 5% glycerol (protein dilution buffer 300 nM [sic] NaCl, 2 mM bME or 1 mM TCEP), 1 h on ice, gel at 4 C; conditions: protein: recombinant; tags: C-terminal TEV site and His6; label: 5' HEX, 3' BHQ-1; hairpin with bulges
UPF2 MIF4G-D3;UPF3B = UPF2 MIF4G-D3;UPF3B (human?;human?, UniProt Q9HAU5;Q9BZI7 761-1054;41-262, |); assay: EMSA; FA: 25 mM HEPES pH 7.45, 150 mM NaCl, 5% glycerol, 10 nM probe, temperature not stated; EMSA: 250 nM probe in 25 mM HEPES pH 7.45, 100 mM NaCl, 5% glycerol (protein dilution buffer 300 nM [sic] NaCl, 2 mM bME or 1 mM TCEP), 1 h on ice, gel at 4 C; conditions: protein: recombinant;recombinant; tags: C-terminal TEV site and His6;; copies: 1;1; label: 5' HEX; hairpin with bulges
UPF1 = target: T2, UPF1 (UniProt Q92900-2 115-914); assay: as above; conditions: protein: recombinant; label: 5' HEX; hairpin with bulges
T2 sequence: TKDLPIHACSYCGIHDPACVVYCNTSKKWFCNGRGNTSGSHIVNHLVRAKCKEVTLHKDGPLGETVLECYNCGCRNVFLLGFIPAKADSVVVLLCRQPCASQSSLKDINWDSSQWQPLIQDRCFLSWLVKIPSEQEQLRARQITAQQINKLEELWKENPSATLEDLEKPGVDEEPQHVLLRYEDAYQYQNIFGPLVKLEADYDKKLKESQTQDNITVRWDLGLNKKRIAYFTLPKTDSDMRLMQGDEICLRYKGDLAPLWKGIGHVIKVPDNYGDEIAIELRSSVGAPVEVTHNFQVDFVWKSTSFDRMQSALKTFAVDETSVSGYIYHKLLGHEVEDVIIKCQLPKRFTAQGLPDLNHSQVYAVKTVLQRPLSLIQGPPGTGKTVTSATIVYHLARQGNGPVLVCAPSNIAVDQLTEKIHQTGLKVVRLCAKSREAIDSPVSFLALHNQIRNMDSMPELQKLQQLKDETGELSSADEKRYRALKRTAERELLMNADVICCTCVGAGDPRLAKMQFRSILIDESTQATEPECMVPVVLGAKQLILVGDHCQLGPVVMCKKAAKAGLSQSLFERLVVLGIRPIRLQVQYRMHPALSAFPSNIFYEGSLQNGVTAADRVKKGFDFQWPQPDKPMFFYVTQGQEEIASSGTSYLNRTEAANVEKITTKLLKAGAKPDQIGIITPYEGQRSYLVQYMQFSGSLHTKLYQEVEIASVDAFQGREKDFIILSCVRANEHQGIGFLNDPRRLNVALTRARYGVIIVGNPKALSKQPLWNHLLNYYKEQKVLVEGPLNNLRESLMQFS

UPF2L;UPF3B;UPF1 = UPF2L;UPF3B;UPF1 (human?;human?;human?, UniProt Q9HAU5;Q9BZI7;Q92900-2 121-1227;41-262;115-914, ||); assay: as above; conditions: protein: recombinant;recombinant;recombinant; tags: C-terminal TEV site and His6;;; copies: 1;1;1; label: 5' HEX; hairpin with bulges
UPF2L [2] = target: T1, UPF2L; assay: fluorescence anisotropy; FA: 25 mM HEPES pH 7.45, 150 mM NaCl, 5% glycerol, 10 nM probe, temperature not stated; EMSA: 250 nM probe in 25 mM HEPES pH 7.45, 100 mM NaCl, 5% glycerol (protein dilution buffer 300 nM [sic] NaCl, 2 mM bME or 1 mM TCEP), 1 h on ice, gel at 4 C; conditions: protein: recombinant; tags: C-terminal TEV site and His6; label: 5' HEX; hairpin with bulges
UPF3B = target: T3, UPF3B (UniProt Q9BZI7 41-262); assay: EMSA; excess UPF3B gives oligomers in well; FA: 25 mM HEPES pH 7.45, 150 mM NaCl, 5% glycerol, 10 nM probe, temperature not stated; EMSA: 250 nM probe in 25 mM HEPES pH 7.45, 100 mM NaCl, 5% glycerol (protein dilution buffer 300 nM [sic] NaCl, 2 mM bME or 1 mM TCEP), 1 h on ice, gel at 4 C; conditions: protein: recombinant; label: 5' HEX; hairpin with bulges
T3 sequence: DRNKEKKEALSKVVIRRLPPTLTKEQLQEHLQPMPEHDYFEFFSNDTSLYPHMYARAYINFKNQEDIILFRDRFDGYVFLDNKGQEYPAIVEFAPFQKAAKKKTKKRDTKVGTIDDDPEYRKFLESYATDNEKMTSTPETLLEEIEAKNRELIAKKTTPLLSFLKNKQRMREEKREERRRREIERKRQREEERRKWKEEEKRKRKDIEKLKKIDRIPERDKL

UPF2 MIF4G-D2 = UPF2 MIF4G-D2 (UniProt Q9HAU5 455-757); assay: EMSA; no defined complex band, no remodeling; FA: 25 mM HEPES pH 7.45, 150 mM NaCl, 5% glycerol, 10 nM probe, temperature not stated; EMSA: 250 nM probe in 25 mM HEPES pH 7.45, 100 mM NaCl, 5% glycerol (protein dilution buffer 300 nM [sic] NaCl, 2 mM bME or 1 mM TCEP), 1 h on ice, gel at 4 C; conditions: protein: recombinant; tags: C-terminal TEV site and His6; label: 5' HEX; hairpin with bulges
UPF2 MIF4G-D1-2 = UPF2 MIF4G-D1-2 (UniProt Q9HAU5 120-757); assay: as above; conditions: protein: recombinant; tags: C-terminal TEV site and His6; label: 5' HEX; hairpin with bulges
UPF2 MIF4G-D1 = UPF2 MIF4G-D1 (UniProt Q9HAU5 120-486); assay: as above; conditions: protein: recombinant; tags: C-terminal TEV site and His6; label: 5' HEX; hairpin with bulges
UPF2L;UPF3B = UPF2L;UPF3B (human?;human?, UniProt Q9HAU5;Q9BZI7 121-1227;41-262, |); assay: EMSA; higher affinity than UPF2L alone, lower than UPF3B; FA: 25 mM HEPES pH 7.45, 150 mM NaCl, 5% glycerol, 10 nM probe, temperature not stated; EMSA: 250 nM probe in 25 mM HEPES pH 7.45, 100 mM NaCl, 5% glycerol (protein dilution buffer 300 nM [sic] NaCl, 2 mM bME or 1 mM TCEP), 1 h on ice, gel at 4 C; conditions: protein: recombinant;recombinant; tags: C-terminal TEV site and His6;; copies: 1;1; label: 5' HEX; hairpin with bulges
Sequence of UPF2L;UPF3B (Q9HAU5 121-1227, one chain of several): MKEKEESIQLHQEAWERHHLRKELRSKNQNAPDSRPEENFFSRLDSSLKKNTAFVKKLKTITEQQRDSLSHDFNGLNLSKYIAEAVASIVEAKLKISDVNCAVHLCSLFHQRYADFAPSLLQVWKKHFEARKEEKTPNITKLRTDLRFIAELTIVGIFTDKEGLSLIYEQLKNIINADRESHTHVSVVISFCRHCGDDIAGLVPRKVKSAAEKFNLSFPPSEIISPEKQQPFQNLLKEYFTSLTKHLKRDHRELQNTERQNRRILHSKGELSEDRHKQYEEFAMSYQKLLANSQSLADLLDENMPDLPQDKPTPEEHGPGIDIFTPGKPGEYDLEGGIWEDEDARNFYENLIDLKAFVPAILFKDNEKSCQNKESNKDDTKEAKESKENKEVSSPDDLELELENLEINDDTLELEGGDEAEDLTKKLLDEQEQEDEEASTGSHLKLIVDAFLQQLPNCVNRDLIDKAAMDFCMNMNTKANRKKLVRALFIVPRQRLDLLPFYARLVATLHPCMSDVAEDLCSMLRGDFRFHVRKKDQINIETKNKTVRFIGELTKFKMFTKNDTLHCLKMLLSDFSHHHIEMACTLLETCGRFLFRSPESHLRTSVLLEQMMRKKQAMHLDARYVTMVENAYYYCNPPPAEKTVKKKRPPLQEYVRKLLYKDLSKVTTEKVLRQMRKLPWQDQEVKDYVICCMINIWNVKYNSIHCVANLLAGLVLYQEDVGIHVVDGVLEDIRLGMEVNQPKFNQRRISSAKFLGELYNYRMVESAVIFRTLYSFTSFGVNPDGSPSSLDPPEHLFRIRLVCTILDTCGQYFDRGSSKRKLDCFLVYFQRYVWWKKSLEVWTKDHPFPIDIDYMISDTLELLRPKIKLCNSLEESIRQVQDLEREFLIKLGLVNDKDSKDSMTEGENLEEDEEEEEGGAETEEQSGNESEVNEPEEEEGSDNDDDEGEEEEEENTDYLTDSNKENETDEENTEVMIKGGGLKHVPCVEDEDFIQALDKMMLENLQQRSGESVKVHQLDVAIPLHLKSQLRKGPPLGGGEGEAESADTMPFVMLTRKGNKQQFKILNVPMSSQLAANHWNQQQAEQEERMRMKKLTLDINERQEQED

T1 sequence (Q9HAU5 121-1227): as the sequence (Q9HAU5 121-1227, one chain of several) above
Sequence of UPF2 MIF4G-D3;UPF3B (Q9HAU5 761-1054, one chain of several): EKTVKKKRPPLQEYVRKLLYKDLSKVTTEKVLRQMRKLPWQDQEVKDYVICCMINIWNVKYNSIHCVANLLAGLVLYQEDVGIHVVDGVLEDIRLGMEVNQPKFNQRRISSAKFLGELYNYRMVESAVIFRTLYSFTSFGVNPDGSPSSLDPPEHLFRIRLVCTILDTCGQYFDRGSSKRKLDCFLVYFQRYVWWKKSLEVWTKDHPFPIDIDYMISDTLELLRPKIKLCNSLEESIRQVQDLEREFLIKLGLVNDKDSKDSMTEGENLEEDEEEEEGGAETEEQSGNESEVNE
Sequence of UPF2 MIF4G-D3 (Q9HAU5 761-1054): as the sequence (Q9HAU5 761-1054, one chain of several) above
Sequence of UPF2 MIF4G-D1 (Q9HAU5 120-486): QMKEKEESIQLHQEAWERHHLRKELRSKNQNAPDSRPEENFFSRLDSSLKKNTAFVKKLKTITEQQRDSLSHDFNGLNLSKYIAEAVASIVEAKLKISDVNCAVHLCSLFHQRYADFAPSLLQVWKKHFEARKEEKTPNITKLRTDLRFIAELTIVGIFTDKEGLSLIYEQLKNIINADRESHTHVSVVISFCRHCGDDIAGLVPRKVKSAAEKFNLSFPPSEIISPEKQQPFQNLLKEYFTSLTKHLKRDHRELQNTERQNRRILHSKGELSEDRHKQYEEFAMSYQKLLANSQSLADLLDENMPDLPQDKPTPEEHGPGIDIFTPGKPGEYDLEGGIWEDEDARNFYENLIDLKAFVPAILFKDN
Sequence of UPF2 MIF4G-D1-2 (Q9HAU5 120-757): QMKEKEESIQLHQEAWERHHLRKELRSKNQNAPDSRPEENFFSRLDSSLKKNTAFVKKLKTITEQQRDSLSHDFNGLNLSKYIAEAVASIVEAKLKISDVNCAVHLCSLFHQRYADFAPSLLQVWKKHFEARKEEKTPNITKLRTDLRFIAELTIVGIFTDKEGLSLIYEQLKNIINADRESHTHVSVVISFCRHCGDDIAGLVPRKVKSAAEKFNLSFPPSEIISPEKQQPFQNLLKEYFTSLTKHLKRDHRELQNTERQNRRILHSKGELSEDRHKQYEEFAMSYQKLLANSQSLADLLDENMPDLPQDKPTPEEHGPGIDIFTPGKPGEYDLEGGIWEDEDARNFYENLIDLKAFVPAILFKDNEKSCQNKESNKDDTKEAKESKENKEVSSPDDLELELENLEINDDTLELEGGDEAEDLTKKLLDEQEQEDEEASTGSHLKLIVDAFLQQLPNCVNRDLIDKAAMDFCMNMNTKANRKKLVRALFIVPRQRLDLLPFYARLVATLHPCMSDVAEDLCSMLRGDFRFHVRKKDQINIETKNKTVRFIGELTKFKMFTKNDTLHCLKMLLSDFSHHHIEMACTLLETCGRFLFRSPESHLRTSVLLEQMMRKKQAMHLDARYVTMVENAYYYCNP
Sequence of UPF2L;UPF3B;UPF1 (Q9HAU5 121-1227, one chain of several): as the sequence (Q9HAU5 121-1227, one chain of several) above
Sequence of UPF2 MIF4G-D2 (Q9HAU5 455-757): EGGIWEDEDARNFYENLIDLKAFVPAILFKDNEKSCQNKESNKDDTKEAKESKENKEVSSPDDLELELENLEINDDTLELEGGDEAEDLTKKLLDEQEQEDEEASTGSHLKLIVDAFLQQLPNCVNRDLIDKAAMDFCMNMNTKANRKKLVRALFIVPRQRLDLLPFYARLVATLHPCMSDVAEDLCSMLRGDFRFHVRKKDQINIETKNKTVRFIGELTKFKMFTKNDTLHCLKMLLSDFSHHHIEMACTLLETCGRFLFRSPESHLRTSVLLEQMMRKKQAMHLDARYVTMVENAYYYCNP

B1: HEX_hp-RNA_BHQ molecular beacon (structured_RNA)
RNA: CCCUGAGCUGACGCAGCACCUGGG
modifications: 3' BHQ-1
B1: binds (UPF2 MIF4G-D3); binds (UPF2L [1]).

B2: 24 nt hp-RNA (structured_RNA)
RNA: CCCUGAGCUGACGCAGCACCUGGG
B2: binds (UPF2 MIF4G-D3;UPF3B); binds (UPF1); binds (UPF2L;UPF3B;UPF1). The Kd (UPF2L [2]) was 223 nM, the binding result (UPF3B) was “binds” and the binding result (UPF2 MIF4G-D2) was “no binding”. B2: no binding (UPF2 MIF4G-D1-2); no binding (UPF2 MIF4G-D1); binds (UPF2L;UPF3B).
